Positions count from the first letter of the chain named. Names and notes keep the numbering of the source.

B1: full-length p202 (purified) (natural protein, mouse, UniProt Q9R002 1-445, looked up)
chain: MSNRNLRSSTNSEFSEGQHQTPSSDSSGHGEDQPQASPGPNKKSHTPKKNISKGAVLHEKPMTVMVLTATEPFNYKEGKENMFHATVATESQYYRVKVFNMDLKEKFTENKFITISKYFNSSGILEINETATVSEAAPNQIIEVPKNIIRSAKETLKISKIKELDSGTLIYGVFAVEKKKVNDKSITFKIKDNEDNIKVVWDKKQHNINYEKGDKLQLFSFHLRKGNGKPILHSGNHSFIKGEKLLKESFEGDGYHKGPKQVVALKATKLFTYDSIKSKKMFHATVATDTEFFRVMVFEENLEKKFIPGNTIALSDYFGMYGSLAIHEYSSVSEVKSQNKEDSSSSDERLIEHLKICDLHLQTKERLVDGEFKVYRKSTGNNCICYGIWDDTGAMKVVVSGQLTSVNCEIGNTIRLVCFELTSNADEWFLRSTRYSYMEVIMPEK
B2: p202, endogenous in bone marrow-derived macrophages (natural protein, UniProt Q9R002 1-445, looked up)
chain: B1 chain
B3: p202 HIN2 (K244-K445) (domain or fragment, mouse, UniProt Q9R002 244-445, looked up)
chain: KLLKESFEGDGYHKGPKQVVALKATKLFTYDSIKSKKMFHATVATDTEFFRVMVFEENLEKKFIPGNTIALSDYFGMYGSLAIHEYSSVSEVKSQNKEDSSSSDERLIEHLKICDLHLQTKERLVDGEFKVYRKSTGNNCICYGIWDDTGAMKVVVSGQLTSVNCEIGNTIRLVCFELTSNADEWFLRSTRYSYMEVIMPEK
B4: mouse AIM2 HIN (domain or fragment, UniProt Q91VJ1 144-341, looked up)
chain: MVAEQEAIREDLQKDPLVVTVLKAINPFECETQEGRQEIFHATVATETDFFFVKVLNAQFKDKFIPKRTIKISNYLWHSNFMEVTSSSVVVDVESNHEVPNNVVKRARETPRISKLKIQPCGTIVNGLFKVQKITEEKDRVLYGIHDKTGTMEVLVLGNPSKTKCEEGDKIRLTFFEVSKNGVKIQLKSGPCSFFKVI
B5: p202 HIN2 R376E (domain or fragment, mouse, UniProt Q9R002 244-445, looked up)
chain: B3 chain with R133E

Data set [1] concerns the molecule itself. Nature of the data set: SEC-MALS.
Data set [2] concerns the molecule itself. Description: cross-linking.
The target of data set [3] is B4. Description: ITC.
Data set [4] addresses B3. Description: ITC.

As for B1, the “stoichiometry N” value in data set [1] stood at 4.
On to B2, for which the “stoichiometry N” value in data set [2] is 4.
With B3, the “stoichiometry N” value in data set [1] was found to be 4; in data set [3], 2 p202 HIN2 per AIM2 HIN.
In data set [4], B4 displayed a Kd of 12.6 µM.
On to B5, for which, in data set [1], the “stoichiometry N” value was 2.
